Measured values taken from IntAct's records for PubMed 25517094.

Target: SH3GL1, Q99961-1
Sequence (Q99961 whole entry): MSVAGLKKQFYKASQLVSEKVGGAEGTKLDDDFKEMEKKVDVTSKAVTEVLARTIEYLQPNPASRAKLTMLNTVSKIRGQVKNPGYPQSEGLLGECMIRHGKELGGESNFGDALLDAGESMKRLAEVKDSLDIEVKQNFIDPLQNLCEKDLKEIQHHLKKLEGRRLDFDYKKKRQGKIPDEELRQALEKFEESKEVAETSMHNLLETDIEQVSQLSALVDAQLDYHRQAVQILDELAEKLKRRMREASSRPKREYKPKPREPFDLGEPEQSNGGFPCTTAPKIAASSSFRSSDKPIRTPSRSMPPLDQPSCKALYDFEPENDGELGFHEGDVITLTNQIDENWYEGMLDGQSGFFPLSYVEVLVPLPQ

Sequence of Beta-1 adrenergic receptor (Mus musculus), P34971 P272A;P273A (P34971 whole entry P272A/P273A): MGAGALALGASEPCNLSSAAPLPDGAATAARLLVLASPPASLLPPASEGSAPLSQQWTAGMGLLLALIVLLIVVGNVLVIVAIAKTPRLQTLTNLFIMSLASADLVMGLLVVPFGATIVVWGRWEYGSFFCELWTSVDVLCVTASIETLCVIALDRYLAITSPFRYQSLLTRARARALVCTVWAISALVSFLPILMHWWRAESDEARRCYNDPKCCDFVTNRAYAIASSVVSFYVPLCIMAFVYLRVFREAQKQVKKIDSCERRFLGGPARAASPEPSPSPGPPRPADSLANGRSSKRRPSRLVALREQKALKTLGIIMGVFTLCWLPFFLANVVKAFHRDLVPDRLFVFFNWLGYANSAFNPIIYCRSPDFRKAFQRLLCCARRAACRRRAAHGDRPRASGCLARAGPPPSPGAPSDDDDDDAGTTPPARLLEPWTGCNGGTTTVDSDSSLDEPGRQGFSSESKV
Sequence of Beta-1 adrenergic receptor (Mus musculus), P34971 P272A;P273A;P283A;P284A (P34971 whole entry P272A/P273A/P283A/P284A): as the sequence (P34971 whole entry P272A/P273A) above, with P283A, P284A counted along it
Sequence of Beta-1 adrenergic receptor (Mus musculus), P34971 R271A (P34971 whole entry R271A): as the sequence (P34971 whole entry P272A/P273A) above, with R271A, A272P, A273P counted along it
Sequence of Beta-1 adrenergic receptor (Mus musculus), P34971 R298E;R299E (P34971 whole entry R298E/R299E): as the sequence (P34971 whole entry P272A/P273A) above, with A272P, A273P, R298E, R299E counted along it

Row | Substance | effect of a mutation on the interaction
1 | Beta-1 adrenergic receptor (Mus musculus), P34971 P272A;P273A | decreasing interaction strength
2 | Beta-1 adrenergic receptor (Mus musculus), P34971 P272A;P273A;P283A;P284A | disrupting interaction strength
3 | Beta-1 adrenergic receptor (Mus musculus), P34971 R271A | decreasing interaction strength
4 | Beta-1 adrenergic receptor (Mus musculus), P34971 R298E;R299E | decreasing interaction strength
